Measured values reported in publication PMC5039622, “Characterization of aspartyl aminopeptidase from Toxoplasma gondii” (Scientific Reports, 2016).

B1: rTgAAP (TgAAP, aspartyl aminopeptidase) (Toxoplasma gondii) (protein)
chain: MQMQTGTELDLLTNMLGTSSAVAAALLEGGRRYGANFLSFVNETGSPYHSVLAVQQRLIACGFSQLDERDKWDLRLGGKYFVTRNHSCIAAFVIGEKFKATSGGFTVVAAHTDSPCLRLRPNSNVKKEGVQQVGVECYGGGLWHTWFDRGLGVAGKVVVKAQDGSLAEKLIRVDRPILVLPNLAIHLQSAEEISAFKINKETHLQPVLCTEVYTQLLAANDSTAREEKRTEEADKETEGNSSCSHLRKRQGERAAAPLLSLIAQELRVENEDIVEWDLCLMDATPGRFCGVHEEFVESPRLDNLGSTWAAFSALMECPSPHPEEISMAVGFDHEEIGSESYTGAGSNVLMVWMERVAQALSAAEFYPQILSRSFLVSSDMAHGVHPNYAERHQGQNKPQMQQGVVIKENANQRYATNATSMALTRAVAEKGQVPMQMFTVKNDSRCGSTVGPILSARLGVRTIDIGIPQWAMHSCRETCGILDLYALQLLLKEFFASFRSIDNSYKGM
notes: full-length CDS 1521 bp, ~56 kDa (55897 Da predicted in ToxoDB), N-terminal GST tag kept (~80 kDa), E. coli BL21, pCold III; mainly dodecamer, also trimer and monomer on native PAGE

What was measured:
[1] = target: T1, rTgAAP (TgAAP, aspartyl aminopeptidase) (Toxoplasma gondii, UniProt A0A7J6KF82); test: inhibition of H-Glu-MCA hydrolysis; type: biochemical; conditions: 1 h pre-incubation at 37 °C; substrate H-Glu-MCA
T1 construct: gene TGRH88_002740; full-length CDS 1521 bp, ~56 kDa (55897 Da predicted in ToxoDB), N-terminal GST tag kept (~80 kDa), E. coli BL21, pCold III; mainly dodecamer, also trimer and monomer on native PAGE
T1 sequence (A0A7J6KF82 1-508): B1 chain

[2] = substrate: Cc1cc(=O)oc2cc(NC(=O)[C@@H](N)CC(=O)O)ccc12; test: fluorogenic MCA release, initial rates; type: biochemical, Toxoplasma gondii; conditions: 37 °C, enzyme 0.3 μM, metal not stated for the kinetics
Source text: (§1) fluorogenic MCA release, initial rates on rTgAAP (TgAAP, aspartyl aminopeptidase)

[3] = substrate: Cc1cc(=O)oc2cc(NC(=O)[C@@H](N)CC(N)=O)ccc12; test: fluorogenic MCA release, initial rates; type: biochemical, Toxoplasma gondii; conditions: 37 °C, enzyme 0.3 μM, metal not stated for the kinetics
Source text: as §1

[4] = substrate: Cc1cc(=O)oc2cc(NC(=O)[C@@H](N)CCC(=O)O)ccc12; test: fluorogenic MCA release, initial rates; type: biochemical, Toxoplasma gondii; conditions: 37 °C, enzyme 0.3 μM, metal not stated for the kinetics
Source text: as §1

[5] = substrate: Cc1cc(=O)oc2cc(NC(=O)[C@@H](N)CO)ccc12; test: fluorogenic MCA release, initial rates; type: biochemical, Toxoplasma gondii; conditions: 37 °C, enzyme 0.3 μM, metal not stated for the kinetics
Source text: as §1

[6] = substrate: Cc1cc(=O)oc2cc(NC(=O)[C@@H](N)Cc3c[nH]cn3)ccc12; test: fluorogenic MCA release, initial rates; type: biochemical, Toxoplasma gondii; conditions: 37 °C, enzyme 0.3 μM, metal not stated for the kinetics
Source text: as §1

[7] = substrate: Cc1cc(=O)oc2cc(NC(=O)[C@@H]3CCCN3)ccc12; test: fluorogenic MCA release, initial rates; type: biochemical, Toxoplasma gondii; conditions: 37 °C, enzyme 0.3 μM, metal not stated for the kinetics, printed kcat/Km 0.28 disagrees tenfold with printed kcat and Km
Source text: as §1

Row | Molecule | % inhibition at 1 mM [1] [%] | Km [2] [µM] | kcat [2] [s⁻¹] | kcat/Km [2] [M⁻¹ s⁻¹] | Km [3] [µM] | kcat [3] [s⁻¹] | kcat/Km [3] [M⁻¹ s⁻¹] | Km [4] [µM] | kcat [4] [s⁻¹] | kcat/Km [4] [M⁻¹ s⁻¹] | Km [5] [µM] | kcat [5] [s⁻¹] | kcat/Km [5] [M⁻¹ s⁻¹] | Km [6] [µM] | kcat [6] [s⁻¹] | kcat/Km [6] [M⁻¹ s⁻¹] | Km [7] [µM]
1 | Cl.Oc1ccc(CCNc2c3ccccc3nc3ccccc23)cc1O [CID 23724194] | > 50 |  |  |  |  |  |  |  |  |  |  |  |  |  |  |  | 
2 | B1 |  | 12.84 ± 0.21 | 1.1 ± 0.0648 | 85700 | 24.32 ± 0.26 | 0.484 ± 0.0126 | 19900 | 7.35 ± 0.73 | 1.4 ± 0.306 | 190000 | 92.87 ± 3.38 | 0.123 ± 0.0086 | 1330 | 88.70 ± 2.53 | 0.208 ± 0.0043 | 2350 | 98.55 ± 1.96
